Assay results as given in paper PMC9176245.
Several values for one entry are separate records, joined by “and”; a condition that tells them apart may be missing. Equal values may be shown once.

How the values were obtained:
Assay in all cases: filter binding
[1] = biological target: T1, Cbf5;Nop10;Gar1 (Saccharomyces cerevisiae;Saccharomyces cerevisiae;Saccharomyces cerevisiae) (UniProt P33322+Q6Q547+P28007); details: no Nhp2; single replicate; 20 mM HEPES-KOH pH 7.4, 150 mM NaCl, 1.5 mM MgCl2, 10% glycerol, 30°C, 10 min; nitrocellulose filtration
T1 sequence 1: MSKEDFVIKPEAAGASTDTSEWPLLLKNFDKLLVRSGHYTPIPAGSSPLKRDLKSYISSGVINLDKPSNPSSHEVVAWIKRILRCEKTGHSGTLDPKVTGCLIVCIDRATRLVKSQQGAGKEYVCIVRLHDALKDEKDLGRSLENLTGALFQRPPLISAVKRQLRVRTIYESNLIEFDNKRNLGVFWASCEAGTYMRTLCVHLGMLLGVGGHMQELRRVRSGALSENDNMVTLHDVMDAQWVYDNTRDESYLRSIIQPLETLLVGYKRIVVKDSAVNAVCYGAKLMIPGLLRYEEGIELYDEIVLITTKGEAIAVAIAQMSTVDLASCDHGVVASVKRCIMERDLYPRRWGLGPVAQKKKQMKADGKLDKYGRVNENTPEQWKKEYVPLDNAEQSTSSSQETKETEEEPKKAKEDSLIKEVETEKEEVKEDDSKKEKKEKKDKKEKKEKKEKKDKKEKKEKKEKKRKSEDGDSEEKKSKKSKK
T1 sequence 2: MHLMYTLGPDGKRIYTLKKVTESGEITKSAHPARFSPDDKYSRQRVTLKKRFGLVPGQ
T1 sequence 3: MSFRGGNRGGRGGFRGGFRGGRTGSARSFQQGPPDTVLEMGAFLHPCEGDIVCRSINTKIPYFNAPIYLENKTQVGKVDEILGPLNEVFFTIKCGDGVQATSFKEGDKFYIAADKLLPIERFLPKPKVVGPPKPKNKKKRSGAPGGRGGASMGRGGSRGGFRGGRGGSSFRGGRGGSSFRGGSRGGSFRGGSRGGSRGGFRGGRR

[2] = biological target: T2, Cbf5;Nop10;Gar1;Nhp2 (Saccharomyces cerevisiae;Saccharomyces cerevisiae;Saccharomyces cerevisiae;Saccharomyces cerevisiae) (UniProt P33322+Q6Q547+P28007+P32495); details: 20 mM HEPES-KOH pH 7.4, 150 mM NaCl, 1.5 mM MgCl2, 10% glycerol, 30°C, 10 min; nitrocellulose filtration
T2 sequence 1: T1 sequence 1
T2 sequence 2: T1 sequence 2
T2 sequence 3: T1 sequence 3
T2 sequence 4: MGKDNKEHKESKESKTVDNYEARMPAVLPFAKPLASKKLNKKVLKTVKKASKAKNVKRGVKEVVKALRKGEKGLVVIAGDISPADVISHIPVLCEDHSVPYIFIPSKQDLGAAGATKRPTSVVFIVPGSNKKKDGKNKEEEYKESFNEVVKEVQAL

[3] = biological target: T3, Nhp2 (Saccharomyces cerevisiae) (UniProt P32495); details: Nhp2 alone, 20 mM HEPES-KOH pH 7.4, 150 mM NaCl, 1.5 mM MgCl2, 10% glycerol, 30°C, 10 min, nitrocellulose filtration
T3 sequence: T2 sequence 4

[4] = biological target: T4, Utp23 (Saccharomyces cerevisiae?) (UniProt Q12339); details: 20 mM HEPES-KOH pH 7.4, 150 mM NaCl, 1.5 mM MgCl2, 10% glycerol, 30°C, 10 min; nitrocellulose filtration
T4 sequence: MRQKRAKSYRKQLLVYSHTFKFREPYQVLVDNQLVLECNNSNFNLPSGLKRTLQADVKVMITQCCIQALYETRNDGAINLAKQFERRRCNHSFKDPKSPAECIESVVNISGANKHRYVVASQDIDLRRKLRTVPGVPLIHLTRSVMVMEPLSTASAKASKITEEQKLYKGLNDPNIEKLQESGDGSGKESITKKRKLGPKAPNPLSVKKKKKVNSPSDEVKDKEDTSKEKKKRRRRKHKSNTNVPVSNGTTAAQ

snR30 full-length
Kd [1]: 0.0012 µM
Kd [2]: 0.0009 µM
Kd ([3]; replicate 1): 0.116 µM
Kd ([3]; replicate 2): 0.212 µM
Kd [4]: 0.0175 µM

snR81
Kd [4]: 0.0047 µM

mitochondrial tRNAMet
Kd [2]: 0.746 µM
Kd [4]: < 0.002 µM

GGGUUAAUAGGGACGGUCGGGGGCAUCAGUAUUCAAUUGUCAGAGGUGAAAUUCUUGGAUUUAUUGAAGACUAACUACUGCGAAAGCAUUUGCCAAGGACGUUUUC [H22/23]
Kd [2]: 0.084 µM
Kd [4]: 0.0088 µM

GGGCCGACUAGGGAUCGGGUGGUGUUUUUUUAAUGACCCACUCGGCACCUUACGAGAAAUCAAAGUCUUUGGGU [H25/26]
Kd [2]: 0.092 µM

GGGAUUUUUUCGUGUACUGGAUUUCCAACGGGGCCUUUCCUUCUGGCUAACCUUGAGUCCUUGUGGCUCUUGGCGAACCAGGA [C2-ES6H1]
Kd [2]: 0.405 µM and 0.56 µM
